Reference: publication PMC12434308 (Nature chemical biology, 2021)
“And” between values parts separate entries of the source, which are not always exact repeats. Equal entries are not always repeated.

Biological target: SARS-CoV-2 S protein (SARS-CoV-2) (UniProt P0DTC2)
Assay: native MS

Substance: SARS-CoV-2 S protein (from UniProt P0DTC2) (natural protein)
- stoichiometry N: 2 and 6
